{"source": "IntAct's records for PubMed 35512704", "parents": {"B1": {"name": "Speckle-type POZ protein (Homo sapiens), O43791 (parent)", "chain": "MSRVPSPPPPAEMSSGPVAESWCYTQIKVVKFSYMWTINNFSFCREEMGEVIKSSTFSSGANDKLKWCLRVNPKGLDEESKDYLSLYLLLVSCPKSEVRAKFKFSILNAKGEETKAMESQRAYRFVQGKDWGFKKFIRRDFLLDEANGLLPDDKLTLFCEVSVVQDSVNISGQNTMNMVKVPECRLADELGGLWENSRFTDCCLCVAGQEFQAHKAILAARSPVFSAMFEHEMEESKKNRVEINDVEPEVFKEMMCFIYTGKAPNLDKMADDLLAAADKYALERLKVMCEDALCSNLSVENAAEILILADLHSADQLKTQAVDFINYHASDVLETSGWKSMVVSHPHLVAEAYRSLASAQCPFLGPPRKRLKQS", "partner": "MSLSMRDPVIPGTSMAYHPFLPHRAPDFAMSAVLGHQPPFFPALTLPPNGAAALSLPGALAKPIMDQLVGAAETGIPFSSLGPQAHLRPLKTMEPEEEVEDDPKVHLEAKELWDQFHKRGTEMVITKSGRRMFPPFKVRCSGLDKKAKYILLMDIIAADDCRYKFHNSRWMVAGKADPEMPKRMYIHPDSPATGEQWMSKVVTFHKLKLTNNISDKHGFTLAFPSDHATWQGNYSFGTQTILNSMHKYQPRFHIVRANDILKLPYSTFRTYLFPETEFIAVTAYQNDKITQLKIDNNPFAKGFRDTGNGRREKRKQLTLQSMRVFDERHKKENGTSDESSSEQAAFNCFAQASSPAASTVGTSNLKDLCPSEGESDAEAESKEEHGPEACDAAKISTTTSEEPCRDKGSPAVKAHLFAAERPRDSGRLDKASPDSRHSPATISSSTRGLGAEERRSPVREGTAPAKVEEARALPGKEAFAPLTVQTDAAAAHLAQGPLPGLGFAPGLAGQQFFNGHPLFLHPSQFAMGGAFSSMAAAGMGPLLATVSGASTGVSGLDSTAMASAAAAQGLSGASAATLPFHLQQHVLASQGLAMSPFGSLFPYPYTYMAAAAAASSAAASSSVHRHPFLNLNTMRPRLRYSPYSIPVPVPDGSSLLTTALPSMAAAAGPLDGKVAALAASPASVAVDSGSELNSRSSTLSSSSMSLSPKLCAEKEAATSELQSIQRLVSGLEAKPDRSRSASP"}, "B2": {"name": "Speckle-type POZ protein (Homo sapiens), O43791 (parent)", "chain": "B1 chain", "partner": "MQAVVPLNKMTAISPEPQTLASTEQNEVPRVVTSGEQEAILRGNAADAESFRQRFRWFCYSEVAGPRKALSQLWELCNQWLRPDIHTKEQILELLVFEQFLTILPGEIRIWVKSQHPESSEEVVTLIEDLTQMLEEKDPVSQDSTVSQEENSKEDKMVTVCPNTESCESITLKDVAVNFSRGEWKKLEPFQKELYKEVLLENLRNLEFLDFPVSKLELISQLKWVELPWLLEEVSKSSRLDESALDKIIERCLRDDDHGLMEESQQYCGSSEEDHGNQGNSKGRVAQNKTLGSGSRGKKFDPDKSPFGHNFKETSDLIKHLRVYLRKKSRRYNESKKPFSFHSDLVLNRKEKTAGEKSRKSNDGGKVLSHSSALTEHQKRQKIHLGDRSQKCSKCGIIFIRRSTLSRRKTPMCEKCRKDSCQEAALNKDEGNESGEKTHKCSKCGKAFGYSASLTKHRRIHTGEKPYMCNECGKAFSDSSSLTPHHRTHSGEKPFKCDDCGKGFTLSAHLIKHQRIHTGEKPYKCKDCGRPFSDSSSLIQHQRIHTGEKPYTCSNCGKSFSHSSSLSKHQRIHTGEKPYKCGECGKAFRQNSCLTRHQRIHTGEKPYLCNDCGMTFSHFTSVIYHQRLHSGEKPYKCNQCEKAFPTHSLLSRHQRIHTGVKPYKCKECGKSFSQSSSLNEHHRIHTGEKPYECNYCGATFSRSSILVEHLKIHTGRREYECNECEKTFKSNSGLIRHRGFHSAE"}, "B3": {"name": "Speckle-type POZ protein (Homo sapiens), O43791 (parent)", "chain": "B1 chain", "partner": "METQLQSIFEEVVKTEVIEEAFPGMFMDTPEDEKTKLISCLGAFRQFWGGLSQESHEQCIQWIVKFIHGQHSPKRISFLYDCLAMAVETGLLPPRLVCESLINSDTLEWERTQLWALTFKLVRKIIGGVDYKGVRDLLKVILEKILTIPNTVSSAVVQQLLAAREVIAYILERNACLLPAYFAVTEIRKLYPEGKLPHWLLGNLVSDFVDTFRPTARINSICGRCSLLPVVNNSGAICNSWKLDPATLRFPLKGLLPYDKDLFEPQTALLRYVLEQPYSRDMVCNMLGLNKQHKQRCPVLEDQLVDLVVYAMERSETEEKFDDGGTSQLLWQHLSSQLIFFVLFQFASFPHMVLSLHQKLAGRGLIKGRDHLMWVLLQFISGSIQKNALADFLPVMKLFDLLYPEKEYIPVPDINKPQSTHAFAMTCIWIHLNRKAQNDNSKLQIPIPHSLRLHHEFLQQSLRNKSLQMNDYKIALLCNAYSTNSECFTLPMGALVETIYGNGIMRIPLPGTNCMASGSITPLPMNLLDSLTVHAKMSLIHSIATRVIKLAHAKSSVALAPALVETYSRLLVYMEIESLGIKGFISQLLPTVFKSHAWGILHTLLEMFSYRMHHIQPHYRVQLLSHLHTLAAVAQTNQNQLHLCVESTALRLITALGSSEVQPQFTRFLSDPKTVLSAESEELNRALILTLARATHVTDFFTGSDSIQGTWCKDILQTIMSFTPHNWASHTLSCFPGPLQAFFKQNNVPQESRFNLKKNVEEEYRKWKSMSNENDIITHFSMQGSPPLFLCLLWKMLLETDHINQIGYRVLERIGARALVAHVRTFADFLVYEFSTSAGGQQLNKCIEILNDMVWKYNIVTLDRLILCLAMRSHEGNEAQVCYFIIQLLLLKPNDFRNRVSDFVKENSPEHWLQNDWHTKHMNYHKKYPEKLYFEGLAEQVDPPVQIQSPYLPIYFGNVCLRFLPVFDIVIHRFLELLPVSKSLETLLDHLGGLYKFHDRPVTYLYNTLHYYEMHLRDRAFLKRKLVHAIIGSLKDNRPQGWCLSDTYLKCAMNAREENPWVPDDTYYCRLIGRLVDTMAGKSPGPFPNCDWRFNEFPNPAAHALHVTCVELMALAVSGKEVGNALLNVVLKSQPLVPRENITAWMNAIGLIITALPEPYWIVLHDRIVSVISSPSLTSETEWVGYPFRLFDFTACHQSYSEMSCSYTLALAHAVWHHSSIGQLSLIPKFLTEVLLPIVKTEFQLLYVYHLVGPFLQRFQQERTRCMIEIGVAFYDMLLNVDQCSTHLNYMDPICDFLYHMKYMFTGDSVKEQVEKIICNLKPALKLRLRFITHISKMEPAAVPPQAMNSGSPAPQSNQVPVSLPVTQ"}, "B4": {"name": "Speckle-type POZ protein (Homo sapiens), O43791 (parent)", "chain": "B1 chain", "partner": "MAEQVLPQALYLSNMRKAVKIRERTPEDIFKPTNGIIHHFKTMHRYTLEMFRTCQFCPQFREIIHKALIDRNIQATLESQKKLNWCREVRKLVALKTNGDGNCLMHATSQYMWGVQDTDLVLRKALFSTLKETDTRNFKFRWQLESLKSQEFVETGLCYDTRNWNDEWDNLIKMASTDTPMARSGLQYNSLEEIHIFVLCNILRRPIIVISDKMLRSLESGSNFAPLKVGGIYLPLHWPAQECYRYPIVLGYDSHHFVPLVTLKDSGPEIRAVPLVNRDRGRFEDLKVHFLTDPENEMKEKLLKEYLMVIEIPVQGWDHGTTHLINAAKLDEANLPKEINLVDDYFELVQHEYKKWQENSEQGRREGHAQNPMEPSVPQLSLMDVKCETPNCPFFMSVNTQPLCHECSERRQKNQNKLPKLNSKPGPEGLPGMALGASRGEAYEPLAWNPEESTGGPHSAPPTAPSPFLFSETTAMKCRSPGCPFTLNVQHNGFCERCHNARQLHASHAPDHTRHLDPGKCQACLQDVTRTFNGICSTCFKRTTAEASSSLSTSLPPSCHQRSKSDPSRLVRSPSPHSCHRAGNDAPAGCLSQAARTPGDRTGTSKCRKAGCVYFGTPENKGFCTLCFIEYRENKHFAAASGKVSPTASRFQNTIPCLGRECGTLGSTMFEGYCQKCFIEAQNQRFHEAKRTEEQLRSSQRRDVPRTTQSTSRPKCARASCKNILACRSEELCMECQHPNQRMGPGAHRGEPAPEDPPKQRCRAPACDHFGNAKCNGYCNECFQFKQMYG"}, "B5": {"name": "Speckle-type POZ protein (Homo sapiens), O43791 (parent)", "chain": "B1 chain", "partner": "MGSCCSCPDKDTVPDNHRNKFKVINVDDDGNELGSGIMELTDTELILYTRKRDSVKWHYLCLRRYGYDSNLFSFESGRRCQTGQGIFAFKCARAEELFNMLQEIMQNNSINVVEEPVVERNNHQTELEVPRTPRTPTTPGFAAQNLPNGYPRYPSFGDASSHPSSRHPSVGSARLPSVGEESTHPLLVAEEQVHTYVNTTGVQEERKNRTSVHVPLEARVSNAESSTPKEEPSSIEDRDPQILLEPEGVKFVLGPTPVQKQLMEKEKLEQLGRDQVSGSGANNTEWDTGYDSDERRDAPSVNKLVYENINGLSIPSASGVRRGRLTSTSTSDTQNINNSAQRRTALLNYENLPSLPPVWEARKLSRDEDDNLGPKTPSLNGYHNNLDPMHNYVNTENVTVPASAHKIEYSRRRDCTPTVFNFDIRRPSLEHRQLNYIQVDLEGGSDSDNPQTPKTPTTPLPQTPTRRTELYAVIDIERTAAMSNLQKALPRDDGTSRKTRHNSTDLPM"}}, "data": [{"variants_of": "B1", "settings": "with tbx3_human TBX3, O15119", "values": [{"variant": "F102C", "effect of a mutation on the interaction": "with no effect"}]}, {"variants_of": "B1", "settings": "with tbx3_human TBX3, O15119", "remark": "another data set of the same source", "values": [{"variant": "Y87C", "effect of a mutation on the interaction": "with no effect"}]}, {"variants_of": "B2", "settings": "with zn483_human ZNF483, Q8TF39", "values": [{"variant": "Y87C", "effect of a mutation on the interaction": "with no effect"}]}, {"variants_of": "B3", "settings": "with med23_human MED23, Q9ULK4", "values": [{"variant": "F133V", "effect of a mutation on the interaction": "with no effect"}]}, {"variants_of": "B3", "settings": "with med23_human MED23, Q9ULK4", "remark": "another data set of the same source", "values": [{"variant": "F133L", "effect of a mutation on the interaction": "with no effect"}]}, {"variants_of": "B4", "settings": "with tnap3_human TNFAIP3, P21580", "values": [{"variant": "Y87C", "effect of a mutation on the interaction": "with no effect"}]}, {"variants_of": "B4", "settings": "with tnap3_human TNFAIP3, P21580", "remark": "another data set of the same source", "values": [{"variant": "F133L", "effect of a mutation on the interaction": "with no effect"}]}, {"variants_of": "B5", "settings": "with frs2_human FRS2, Q8WU20", "values": [{"variant": "F133V", "effect of a mutation on the interaction": "with no effect"}]}, {"variants_of": "B5", "settings": "with frs2_human FRS2, Q8WU20", "remark": "another data set of the same source", "values": [{"variant": "F133L", "effect of a mutation on the interaction": "with no effect"}]}]}
